These are literature values, as cited in paper PMC7424061.

One may read the Kd as the free concentration of one partner at which half of the binding sites on the other are occupied at equilibrium, for simple one-to-one binding.

For this series, the target named is p53 TAD (Homo sapiens) (UniProt P04637).
Chain of p53 TAD (Homo sapiens) (P04637 1-61): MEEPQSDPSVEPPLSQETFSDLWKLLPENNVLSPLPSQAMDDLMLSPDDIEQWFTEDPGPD

Chain of azurin (P00282 21-148): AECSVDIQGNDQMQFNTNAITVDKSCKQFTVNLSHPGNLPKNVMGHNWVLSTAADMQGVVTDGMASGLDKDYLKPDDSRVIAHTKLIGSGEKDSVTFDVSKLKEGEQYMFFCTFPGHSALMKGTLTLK

azurin (from UniProt P00282): the Kd was 7 µM.
